Data on seven molecules can be found in US20240025997A1 (NGM BIOPHARMACEUTICALS, published 2024).

For experiment [1], the target named is T1, soluble human ILT4-ECD (human, UniProt Q8N423 22-460).
T1 construct: also called LILRB2 extracellular domain
Kind of experiment: SPR (Biacore) as described in Example 3. How it is done:
(§1) The binding affinities of anti-ILT2 and anti-ILT4 antibodies were measured using a Biacore system (GE Healthcare LifeSciences). Equilibrium dissociation constant (KD) measurements were carried out with purified antibodies to evaluate their binding to human ILT2, human ILT4, and rhesus ILT2. Briefly, purified anti-ILT2 antibody 27F9, anti-ILT4 antibodies 47C8 and 48A5, and anti-ILT2/ILT4 antibodies 47H6, 51A1, 64A12, 73C4, and 73D1 were captured on a Sensor Chip Protein A (GE HealthCare). The surface of the Biacore Sensor Chip Protein A consists of a carboxymethylated dextran matrix with a recombinant Protein A variant covalently attached. Soluble human ILT2-ECD, human ILT4-ECD, or rhesus ILT2-ECD were injected at a flow rate of 30 μL/min at 25° C. The ILT2 or ILT4 proteins were used at concentrations ranging from 1.6-200 nM in PBS-P buffer with 2 fold dilutions. Kinetic data were collected over time and fit using the simultaneous global fit equation to yield affinity constants (KD values) for each antibody.
(§2) The binding affinities of the humanized antibodies to human ILT2 and human ILT4 were measured using a Biacore system as described herein. The binding affinities of antibodies Hz47H6.v2, Hz64A12, and Hz73D1.v1 are shown in Table 11 as compared with the parental antibodies.
For orientation: In SPR one partner is held on a chip, and binding of the other changes the refractive index at the surface.

In experiment [2] the target is T2, soluble human ILT2-ECD (human, UniProt Q8NHL6 24-461).
T2 construct: also called LILRB1 extracellular domain
As to the kind of experiment: SPR (Biacore) as described in Example 3. Here is the method:
as §1, §2

Experiment [3] concerns the target T1, soluble human ILT4-ECD. As to the kind of experiment: SPR (Biacore), antibody captured on Protein A chip, soluble ILT-ECD injected (1.6-200 nM), 25 C. Here is the method:
as §1

In experiment [4] the target is T2, soluble human ILT2-ECD. The description is as above. How it is done: as §1
Experiment [5] deals with T1, soluble human ILT4-ECD. As to the kind of experiment: SPR (Biacore), antibody captured on Protein A chip, soluble ILT-ECD injected, 25 C, low resolution parameters. How it is done:
as §1

Experiment [6] concerns the target T2, soluble human ILT2-ECD. The experiment is described as above. How it is done: as §1
In experiment [7] the target is T1, soluble human ILT4-ECD. As to the kind of experiment: SPR (Biacore) as described in Example 3, low resolution parameters. Here is the method:
as §1, §2

The target of experiment [8] is T2, soluble human ILT2-ECD. The experiment is described as above. How it is done: as §1, §2
Experiment [9] concerns the target T3, cynomolgus monkey ILT2 on cells (cynomolgus monkey).
T3 construct: also called cyno ILT2; ILT2 on cyno CD14+ monocytes
Kind of experiment: flow cytometry, fluorescently labelled antibody on CD14+ monocytes of cyno PBMC, donor Cyno 2, geometric MFI. How it is done:
(§3) The binding of anti-ILT2/ILT4 antibodies to monocytes was evaluated. The binding of exemplary anti-ILT2/ILT4 antibody 73D1 and the humanized version Hz73D1.v1 to the CD14+ monocyte population of human and cyno PBMC were determined by flow cytometry analysis. Briefly, human or cyno PBMCs (from 2 donors each) were thawed, washed in media (RPMI, 10% FBS, L-glutamine, pen/strep), and resuspended in fresh media. PBMCs were stained with a cocktail of labeled antibodies to differentiate between the different cell types. 1×10⁶ cells/well were stained with fluorescently-labelled 73D1 or Hz73D1.v1 antibody and incubated on ice. The cells were washed with ice-cold reagents and immediately analyzed by flow cytometry. The geometric mean fluorescence intensity for CD14+ monocytes was calculated for each sample. […] For example, the 50% effective concentration (EC₅₀) of Hz73D1.v1 was 8.8 nM with human monocytes and 1.8 nM with cyno monocytes.
Background: A flow cytometer gives signals particle by particle.

The target of another experiment is T4, human ILT4 on cells (human, UniProt Q8N423 22-597).
T4 construct: also called LILRB2; human ILT4 expressed on 293T cells
Kind of experiment: flow cytometry, fluorescently labelled antibody on immune cell subsets of PBMC / red-cell-depleted whole blood. How it is done:
Flow cytometry analysis of blood immune cells was performed on human and cyno PBMC and whole blood. PBMC were prepared from a leukopak (Allcells Inc.) by centrifugation through ficoll, washing with PBS and freezing in cryopreservation buffer in liquid nitrogen until use. Whole blood (Allcells Inc.) was obtained fresh and red blood cells (RBC) depleted using ammonium chloride RBC lysing solution (Biolegend). PBMC or whole blood samples were stained with a fluorescently labeled antibody panel to distinguish various immune subsets (monocytes, B cells, NK cells, CD4+ and CD8+ T cells, neutrophils and eosinophils). Samples were further stained with fluorescently labeled isotype, 27F9 (ILT2 specific), 48A5 (ILT4 specific), 73D1, and Hz73D1.v1. The number of ILT2 and ILT4 molecules per cell of each immune subset was estimated by incubation with Quantum Simply Cellular microspheres followed by flow cytometry analysis.

The target of experiment [10] is T3, cynomolgus monkey ILT2 on cells. As to the kind of experiment: flow cytometry, fluorescently labelled antibody on CD14+ monocytes of cyno PBMC, donor Cyno 1, geometric MFI. How it is done:
as §3

Numbering of substitutions follows the chain as printed.

T1 sequence (Q8N423 other isoform, or with tags, fused parts or gaps): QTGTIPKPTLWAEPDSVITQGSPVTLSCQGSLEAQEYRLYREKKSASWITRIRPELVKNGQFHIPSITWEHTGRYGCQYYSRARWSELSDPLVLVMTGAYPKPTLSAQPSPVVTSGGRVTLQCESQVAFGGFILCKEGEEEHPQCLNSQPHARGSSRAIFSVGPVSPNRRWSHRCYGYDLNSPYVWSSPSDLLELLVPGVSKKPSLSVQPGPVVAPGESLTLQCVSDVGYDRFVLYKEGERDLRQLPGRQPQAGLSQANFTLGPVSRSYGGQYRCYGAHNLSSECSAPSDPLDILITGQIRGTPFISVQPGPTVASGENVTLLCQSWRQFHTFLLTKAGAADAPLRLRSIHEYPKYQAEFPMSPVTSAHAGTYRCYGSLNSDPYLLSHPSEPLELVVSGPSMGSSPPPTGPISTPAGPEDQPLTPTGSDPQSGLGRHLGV
T2 sequence (Q8NHL6 24-461): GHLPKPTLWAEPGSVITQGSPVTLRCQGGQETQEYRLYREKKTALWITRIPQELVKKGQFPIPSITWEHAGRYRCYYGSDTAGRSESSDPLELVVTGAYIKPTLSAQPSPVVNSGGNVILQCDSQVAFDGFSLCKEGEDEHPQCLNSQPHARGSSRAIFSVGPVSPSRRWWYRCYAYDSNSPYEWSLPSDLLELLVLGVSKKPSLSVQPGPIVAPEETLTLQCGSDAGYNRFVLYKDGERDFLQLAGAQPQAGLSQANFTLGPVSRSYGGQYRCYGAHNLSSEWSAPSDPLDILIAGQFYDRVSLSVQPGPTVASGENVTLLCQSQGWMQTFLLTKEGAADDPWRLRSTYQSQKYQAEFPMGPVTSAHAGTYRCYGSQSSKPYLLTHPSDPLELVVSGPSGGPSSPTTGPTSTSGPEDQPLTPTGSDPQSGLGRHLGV
T3 sequence (chain, as listed by the source): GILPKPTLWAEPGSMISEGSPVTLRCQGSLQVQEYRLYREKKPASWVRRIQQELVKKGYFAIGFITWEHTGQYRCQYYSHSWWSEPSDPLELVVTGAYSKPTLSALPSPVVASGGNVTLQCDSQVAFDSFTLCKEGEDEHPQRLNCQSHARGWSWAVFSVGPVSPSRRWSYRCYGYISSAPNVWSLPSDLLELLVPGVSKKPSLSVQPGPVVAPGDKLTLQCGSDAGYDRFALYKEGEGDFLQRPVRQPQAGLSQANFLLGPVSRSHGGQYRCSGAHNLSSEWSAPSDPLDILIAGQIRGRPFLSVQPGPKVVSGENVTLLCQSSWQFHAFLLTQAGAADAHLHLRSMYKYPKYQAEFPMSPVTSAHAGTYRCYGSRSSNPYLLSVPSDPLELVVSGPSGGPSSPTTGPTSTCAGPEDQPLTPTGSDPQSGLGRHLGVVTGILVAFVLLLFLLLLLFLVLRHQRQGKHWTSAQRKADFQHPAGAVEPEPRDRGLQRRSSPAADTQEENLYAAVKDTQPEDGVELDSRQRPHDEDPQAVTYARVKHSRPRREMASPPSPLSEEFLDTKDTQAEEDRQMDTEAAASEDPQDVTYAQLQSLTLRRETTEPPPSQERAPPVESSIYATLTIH
T4 sequence (Q8N423 other isoform, or with tags, fused parts or gaps): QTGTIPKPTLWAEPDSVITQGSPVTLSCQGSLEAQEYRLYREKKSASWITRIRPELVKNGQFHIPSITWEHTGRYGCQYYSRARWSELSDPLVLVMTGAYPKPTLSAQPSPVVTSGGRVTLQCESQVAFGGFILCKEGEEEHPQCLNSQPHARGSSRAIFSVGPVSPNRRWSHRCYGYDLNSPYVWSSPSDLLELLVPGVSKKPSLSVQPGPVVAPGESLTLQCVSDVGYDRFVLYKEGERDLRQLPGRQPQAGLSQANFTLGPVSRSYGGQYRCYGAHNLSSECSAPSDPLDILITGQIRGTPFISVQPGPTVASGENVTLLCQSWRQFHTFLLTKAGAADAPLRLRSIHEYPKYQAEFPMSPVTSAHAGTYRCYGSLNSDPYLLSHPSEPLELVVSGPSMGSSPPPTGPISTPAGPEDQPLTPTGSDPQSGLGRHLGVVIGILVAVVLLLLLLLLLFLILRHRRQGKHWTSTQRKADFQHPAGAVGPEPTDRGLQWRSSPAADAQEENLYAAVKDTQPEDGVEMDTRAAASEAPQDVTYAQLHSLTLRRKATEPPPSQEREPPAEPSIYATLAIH

B1: humanized anti-ILT2/ILT4 antibody Hz47H6.v2 (antibody, human IgG1, kappa, N297G, V domains shown)
VH: QVQLVQSGAEVKKPGASVKVSCKASGYTFTDYYMNWVRQAPGQRLEWIGDFNPNNAGTTYNQKFEGRVTITVDKSASTAYMELSSLRSEDTAVYYCARGRFYYGSLYSFDYWGQGTLVTVSS
VL: DIQMTQSPSSLSASVGDRVTITCRASGNIHNYLAWYQQKPGKAPKLLIYNAKTLADGVPSRFSGSGSGTDFTLTISSLQPEDFATYYCQHFWTSITFGPGTKVDIKR
One may read the Kd as the concentration at which binding is half-saturated. As usually defined, the koff is the rate constant with which the complex falls apart. Broadly, the kon is the second-order rate constant of association. Turning to B1, in the experiment with soluble human ILT4-ECD [1], the affinity, expressed as Kd, was 2 nM; the dissociation rate constant (koff) was found to be 0.00018 s⁻¹; the kon was 87000 M⁻¹ s⁻¹. In the experiment with soluble human ILT2-ECD [2], this molecule returned a dissociation constant Kd of 4 nM, a koff of 0.0009 s⁻¹ and a kon of 230000 M⁻¹ s⁻¹.

B2: anti-ILT2/ILT4 antibody 47H6 (antibody, V domains shown)
VH: EVQLQQSGPELVKPGASVKISCKASGYTFTDYYMNWVKQSHGKSLEWIGDFNPNNGGTTYNQKFEGKATLTVDKSSNTAYMDLRSLTSEDSAVYYCARGRFYYGSLYSFDYWGQGTTLTVSS
VL: DIQMTQSPASLSASVGETVTITCRASGNIHNYLAWYQQKQGKSPHLLVYNAKTLADGVPSRFSGSGSGTQYSLKINNLQPEDFGSYYCQHFWTSITFGAGTKLDLK
notes: Mouse hybridoma antibody
As to B2, the Kd was found to be 0.76 nM with soluble human ILT4-ECD [3], 2.1 nM with soluble human ILT2-ECD [4], 0.2 nM with soluble human ILT4-ECD [1] and 0.2 nM with soluble human ILT2-ECD [2]. The koff with soluble human ILT4-ECD [3] is 2.8e-05 s⁻¹; in the experiment with soluble human ILT2-ECD [4], 8.6e-05 s⁻¹; in the experiment with soluble human ILT4-ECD [1], 2.1e-05 s⁻¹; in the experiment with soluble human ILT2-ECD [2], 2.1e-05 s⁻¹. Moreover, the kon with soluble human ILT4-ECD [3] stood at 37000 M⁻¹ s⁻¹; with soluble human ILT2-ECD [4], 42000 M⁻¹ s⁻¹; with soluble human ILT4-ECD [1] it was 100000 M⁻¹ s⁻¹; in the experiment with soluble human ILT2-ECD [2], 100000 M⁻¹ s⁻¹.

B3: anti-ILT2/ILT4 antibody 73C4 (antibody, V domains shown)
VH: AVQLQQSGPELVKPGASVKISCKASGYTFTDYYMNWVKQSHGKSLEWIGNVNPNNGGTSYNQKFKGKATLTVDKSSSTAYMELRSLTSEDSAVYYCARREIYFYGTIYYYAMDYWGQGTSVTVSS
VL: DIVLTQSPASLAVSLGQRATISCRASESVDYYGNSFMYWYQQKPGRPPNLLIYFASNLESGVPARFSGSGSRTDFTLTIDPVEADDAATYYCQQNNEDPWTFGGGTKLEIK
notes: Mouse hybridoma antibody
With B3, in the experiment with soluble human ILT4-ECD [5], the dissociation constant (Kd) is < 0.1 nM, the koff is ~1e-05 s⁻¹ and the kon came to 97000 M⁻¹ s⁻¹. Further, in the experiment with soluble human ILT2-ECD [6], the Kd was < 0.1 nM, the koff was ~1e-05 s⁻¹ and the kon amounted to 31000 M⁻¹ s⁻¹.

B4: anti-ILT2/ILT4 antibody 51A1 (antibody, V domains shown)
VH: EVQLVESGGGLVQPKGSLKLSCAASGFTFNTYAMHWVRQAPGKGLEWVARIRSKSSNYATYYADSVKDRFTISRDDSQSMLYLQMNNLKTEDTAMYYCVRDGIYYYGTMYYYAMDYWGQGTSVTVSS
VL: B3 VL with D1N, R46Q, N49K, D85A, T89S
notes: Mouse hybridoma antibody
With B4, in the experiment with soluble human ILT4-ECD [3], binding was characterised by a dissociation constant (Kd) of 0.2 nM, the koff came to 1.4e-05 s⁻¹ and the kon was 68000 M⁻¹ s⁻¹. Moreover, in the experiment with soluble human ILT2-ECD [4], the Kd was found to be 5.8 nM, the koff stood at 0.00022 s⁻¹ and the kon was found to be 39000 M⁻¹ s⁻¹.

B5: anti-ILT2/ILT4 antibody 64A12 (antibody, V domains shown)
VH: B4 VH with G107D
VL: B3 VL with D1N, M37I, R46Q, N49K, D85A, T89S
notes: Mouse hybridoma antibody
For the molecule B5, the dissociation constant (Kd) with soluble human ILT4-ECD [7], with soluble human ILT2-ECD [8], with soluble human ILT4-ECD [5] and with soluble human ILT2-ECD [6] was < 0.1 nM throughout. In addition, the koff with soluble human ILT4-ECD [7], with soluble human ILT2-ECD [8], in the experiment with soluble human ILT4-ECD [5] and with soluble human ILT2-ECD [6] was ~1e-05 s⁻¹ throughout. The kon with soluble human ILT4-ECD [7] is 82000 M⁻¹ s⁻¹; in the experiment with soluble human ILT2-ECD [8], 20000 M⁻¹ s⁻¹; with soluble human ILT4-ECD [5] it was 82000 M⁻¹ s⁻¹; with soluble human ILT2-ECD [6], 20000 M⁻¹ s⁻¹.

B6: anti-ILT2/ILT4 antibody 73D1 (antibody, V domains shown)
VH: B3 VH with M34I, E46Q, N55D, S59T
VL: B3 VL
notes: Mouse hybridoma antibody; Shares its light chain variable region with 73C4
As a reminder, the EC50 (read off the curve) is the concentration that produces a half-maximal response. Consider B6, for which the “EC50 (read off the curve)” value is ~0.9 nM in experiment [9] and ~0.7 nM in [10]. Further, the binding result with human ILT4 on cells is “binds”. The Kd was 0.18 nM with soluble human ILT4-ECD [3], 1.2 nM with soluble human ILT2-ECD [4], 0.74 nM in the experiment with soluble human ILT4-ECD [1] and 1.8 nM with soluble human ILT2-ECD [2]. The koff is 5.4e-05 s⁻¹ in the experiment with soluble human ILT4-ECD [3], 6e-05 s⁻¹ with soluble human ILT2-ECD [4], 0.0003 s⁻¹ with soluble human ILT4-ECD [1] and 0.00024 s⁻¹ in the experiment with soluble human ILT2-ECD [2]. For the same molecule, the kon with soluble human ILT4-ECD [3] was 300000 M⁻¹ s⁻¹; with soluble human ILT2-ECD [4], 50000 M⁻¹ s⁻¹; with soluble human ILT4-ECD [1], 400000 M⁻¹ s⁻¹; with soluble human ILT2-ECD [2], 150000 M⁻¹ s⁻¹.

B7: humanized anti-ILT2/ILT4 antibody Hz64A12 (antibody, human IgG1, kappa, N297G, V domains shown)
VH: EVQLVESGGGLVQPGGSLRLSCAASGFTFNTYAMHWVRQAPGKGLEWVARIRSKSSNYATYYADSVKDRFTISRDDAKNSLYLQMNSLRAEDTAVYYCARDGIYYYDTMYYYAMDYWGQGTLVTVSS
VL: NIVLTQSPDSLAVSLGERATINCRASESVDYYGNSFIYWYQQKPGQPPKLLIYFASNLESGVPDRFSGSGSGTDFTLTISSLQAEDVAVYYCQQNNEDPWTFGGGTKVEIKR
notes: Human IgG1 constant region with G at position 297, human kappa
As for B7, in the experiment with soluble human ILT4-ECD [7], the Kd was < 0.1 nM, the dissociation rate constant (koff) is ~1e-05 s⁻¹ and the kon is 300000 M⁻¹ s⁻¹. In the experiment with soluble human ILT2-ECD [8], the Kd was determined as 1.6 nM, the koff is 0.00014 s⁻¹ and the association rate constant (kon) came out at 93000 M⁻¹ s⁻¹.
